B1: Serine/threonine-protein kinase haspin (Homo sapiens), Q8TF76-1 (parent)
chain: MAASLPGPGSRLFRTYGAADGRRQRRPGREAAQWFPPQDRRRFFNSSGSSDASIGDPSQSDDPDDPDDPDFPGSPVRRRRRRPGGRVPKDRPSLTVTPKRWKLRARPSLTVTPRRLGLRARPPQKCSTPCGPLRLPPFPSRDSGRLSPDLSVCGQPRDGDELGISASLFSSLASPCPGSPTPRDSVISIGTSACLVAASAVPSGLHLPEVSLDRASLPCSQEEATGGAKDTRMVHQTRASLRSVLFGLMNSGTPEDSEFRADGKNMRESCCKRKLVVGNGPEGPGLSSTGKRRATGQDSCQERGLQEAVRREHQEASVPKGRIVPRGIDRLERTRSSRKSKHQEATETSLLHSHRFKKGQKLGKDSFPTQDLTPLQNVCFWTKTRASFSFHKKKIVTDVSEVCSIYTTATSLSGSLLSECSNRPVMNRTSGAPSSWHSSSMYLLSPLNTLSISNKKASDAEKVYGECSQKGPVPFSHCLPTEKLQRCEKIGEGVFGEVFQTIADHTPVAIKIIAIEGPDLVNGSHQKTFEEILPEIIISKELSLLSGEVCNRTEGFIGLNSVHCVQGSYPPLLLKAWDHYNSTKGSANDRPDFFKDDQLFIVLEFEFGGIDLEQMRTKLSSLATAKSILHQLTASLAVAEASLRFEHRDLHWGNVLLKKTSLKKLHYTLNGKSSTIPSCGLQVSIIDYTLSRLERDGIVVFCDVSMDEDLFTGDGDYQFDIYRLMKKENNNRWGEYHPYSNVLWLHYLTDKMLKQMTFKTKCNTPAMKQIKRKIQEFHRTMLNFSSATDLLCQHSLFK

Variants of: B1
Conditions: with h32_mouse H3c13, P84228

Effect of a mutation on the interaction, decreasing interaction:
H651A
G713F
E492A
D709N
D707L
